The values below come from patent US20250388704A1 (Xencor, published 2025).

Residue numbers refer to the chain shown, from its start.

For assay [1], the target named is T1, human PSMA on the surface of prostate cancer cell lines (C42B / C42B-NLR, 22Rv1 / 22Rv1-NLR, PSMA-transfected … (human, UniProt Q04609 1-750)).
T1 construct: whole, on cells; also called Prostate Specific Membrane Antigen
Briefly: flow cytometry on C42B-NLR (PSMA hi) cells, 30 min at 37 degrees, detection with anti-human-Ig-FITC. Background: Flow cytometry measures light scatter and fluorescence of single cells or particles in a stream.

For assay [2], the target named is T2, human CD28 on the surface of human PBMCs / T cells (human, UniProt P10747 19-220).
T2 construct: whole, on cells; Endogenous CD28 on human PBMCs (flow cytometry) and on T cells (functional assays); also called cell-surface CD28
As to the kind of experiment: flow cytometry on human PBMCs, 1 h at 4 C, detected with Alexa Fluor 647 anti-human IgG Fc secondary.
Text: Binding of the phage-derived bivalent mAbs to cell-surface CD28 was investigated.

In assay [3] the target is T1, human PSMA on the surface of prostate …. Briefly: flow cytometry on 22Rv1-NLR (PSMA med) cells, 30 min at 37 degrees, detection with anti-human-Ig-FITC.
Assay [4] shares this target. As to the kind of experiment: binding to C4-2B (C42B, PSMA^hi) cells, MFI against concentration, least squares fit.
Assay [5] concerns the target T3, CD28 antigen used for the affinity determinations (human, UniProt P10747 19-152, limits assumed).
T3 construct: Octet/BLI is described only for the bivalent mAbs
As to the kind of experiment: CD28 binding affinity of the scFv arm, told in a figure legend; method not stated.

For assay [6], the target named is T3, CD28 antigen used for the affinity …. Briefly: CD28 binding affinity of the scFv arm; method not stated.
The target is the same in assay [7]. As to the kind of experiment: CD28 binding affinity of the scFv arm; method not stated; assigned to XENP40470 by elimination.
Assay [8] shares this target. Briefly: Octet (BLI), apparent dissociation constant (KDapp) of the bivalent mAb for CD28. Background: BLI is a label-free optical method that tracks binding on a fibre tip over time.
Assay [9] has the same target. As to the kind of experiment: CD28 binding affinity of the scFv arm (monovalent, scFv in 1+1 Fab-scFv-Fc bsAb, FIG. 20); method not stated.

B1: PSMA x CD28 bsAb with D01v2 PSMA binding domain and 1A7_H1_L1.71 CD28 binding domain (Platform X) (bispecific antibody)
heavy: EVQLVESGGDLVQPGGSLRLSCAASGFTFNNYNMNWVRQAPGKGLEWVSHISTSSSNKYYADSVKGRFSISRDIAKNSMYLQMNSLRDEDTAVYYCAREGVGADYGDYYYYGMDVWGQGTTVTVSSASTKGPSVFPLAPSSKSTSGGTAALGCLVKDYFPEPVTVSWNSGALTSGVHTFPAVLQSSGLYSLSSVVTVPSSSLGTQTYICNVNHKPSDTKVDKKVEPKSCDKTHTCPPCPAPPVAGPSVFLFPPKPKDTLMISRTPEVTCVVVDVKHEDPEVKFNWYVDGVEVHNAKTKPREEEYNSTYRVVSVLTVLHQDWLNGKEYKCKVSNKALPAPIEKTISKAKGQPREPQVYTLPPSREEMTKNQVSLTCDVSGFYPSDIAVEWESDGQPENNYKTTPPVLDSDGSFFLYSKLTVDKSRWEQGDVFSCSVMHEALHNHYTQKSLSLSPGK
scFv-Fc: not shown
light: QSVLTQPASVSGSPGQSITISCTGTSSDVGGYNYVSWYQQHPGKAPKLMIYEVSNRPSGVSNRFSGSKSGNTASLTISGLQAEDEADYYCSSYTSSYTYVFGTGTKLTVLGQPKAAPSVTLFPPSSEELQANKATLVCLISDFYPGAVTVAWKADSSPVKAGVETTTPSKQSNNKYAASSYLSLTPEQWKSHRSYSCQVTHEGSTVEKTVAPTECS
notes: D01v2 is D01 with the degradation liabilities removed
In the case of B1, the binding result in assay [1] is “binds”.

B2: PSMA x CD28 bsAb with D01 PSMA binding domain and 1A7_H1_L1.71 CD28 binding domain (Platform X) (bispecific antibody)
heavy: B1 heavy with E99D
scFv-Fc: not shown
light: B1 light
Turning to B2, the binding result in assay [1] was “binds”.

B3: XENP27181 (antibody, V domains shown)
VH: QVQLQESGPGLVKPSETLSLTCAVSGFSLTSYGVHWIRQPPGKGLEWLGVIWPGGGTNFNSALMSRLTISEDTSKNQVSLKLSSVTAADTAVYYCARDRAYGNYLYAMDYWGQGTLVTVSS
VL: DIQMTQSPSSLSASVGDRVTITCRASESVEYYVTSLMQWYQQKPGKAPKLLIYAASNVDSGVPSRFSGSGSGTDFTLTISSLQPEDIATYYCQQSRKVPFTFGGGTKVEIKR
notes: Bivalent anti-CD28 mAb; also called HuTN228; prior art anti-CD28 mAb HuTN228; copies: 2 + 2
Take B3: the binding result in [2] is given as “binds”.

B4: PSMA x CD28 bsAb with A10 PSMA binding domain and 1A7_H1_L1.71 CD28 binding domain (Platform X) (bispecific antibody)
heavy: not shown
scFv-Fc: not shown
light: SYELMQPPSVSVSPGQTARITCSGDALPKQYAYWYQQKPGQAPVLVIYKDSERPSGIPVRFSGSSSGTTVTLTITGVQAEDEADYYCQSADSSGTYVFGTGTKVTVLGQPKAAPSVTLFPPSSEELQANKATLVCLISDFYPGAVTVAWKADSSPVKAGVETTTPSKQSNNKYAASSYLSLTPEQWKSHRSYSCQVTHEGSTVEKTVAPTECS
As a reminder, the EC50 (read off the curve) is the concentration giving half of the maximal effect. Low readings indicate greater potency, high ones weaker potency. For the molecule B4, the half-maximal effective concentration (EC50 (read off the curve)) in assay [3] was roughly 0.06 µg/mL.

B5: C28PB318.002 PSMA (A10v2) x CD28 (96 nM) (bispecific antibody)
scFv-Fc: not shown
heavy: not shown
light: B4 light
Take B5: in assay [4], the “EC50 (read off the curve)” value was roughly 2 nM.

B6: XENP39233 PSMA (A10v2) x CD28 (96 nM) (bispecific antibody)
heavy: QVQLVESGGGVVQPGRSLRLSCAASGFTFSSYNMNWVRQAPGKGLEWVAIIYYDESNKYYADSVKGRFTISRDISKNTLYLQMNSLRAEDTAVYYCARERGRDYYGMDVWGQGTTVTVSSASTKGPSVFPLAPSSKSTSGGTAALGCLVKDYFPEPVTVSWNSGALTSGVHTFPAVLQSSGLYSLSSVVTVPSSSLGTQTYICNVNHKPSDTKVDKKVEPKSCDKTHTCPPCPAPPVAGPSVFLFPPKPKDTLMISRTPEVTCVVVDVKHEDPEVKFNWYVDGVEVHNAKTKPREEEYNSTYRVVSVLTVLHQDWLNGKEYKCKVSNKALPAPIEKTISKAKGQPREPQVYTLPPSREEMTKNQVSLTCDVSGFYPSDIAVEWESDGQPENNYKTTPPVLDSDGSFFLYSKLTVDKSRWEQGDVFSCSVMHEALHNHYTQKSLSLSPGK
scFv-Fc: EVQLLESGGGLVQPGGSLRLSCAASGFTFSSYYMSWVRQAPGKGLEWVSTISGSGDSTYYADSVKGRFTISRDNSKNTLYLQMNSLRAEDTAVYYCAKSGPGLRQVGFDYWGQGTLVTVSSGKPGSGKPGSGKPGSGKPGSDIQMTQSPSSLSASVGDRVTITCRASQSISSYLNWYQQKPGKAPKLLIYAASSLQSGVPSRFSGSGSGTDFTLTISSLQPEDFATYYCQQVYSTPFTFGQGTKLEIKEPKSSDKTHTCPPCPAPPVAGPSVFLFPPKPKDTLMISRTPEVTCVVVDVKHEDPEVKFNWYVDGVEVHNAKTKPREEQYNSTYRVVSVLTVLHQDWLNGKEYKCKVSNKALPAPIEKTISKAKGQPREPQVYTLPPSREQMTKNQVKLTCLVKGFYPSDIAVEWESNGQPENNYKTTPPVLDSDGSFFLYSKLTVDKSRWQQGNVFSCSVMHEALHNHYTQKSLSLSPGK
light: B4 light
notes: Member of group m19
Turning to B6, the “EC50 (read off the curve)” value in [4] is roughly 2 nM.

B7: C28PB330.002 PSMA (A10v2) x CD28 (180 nM) (bispecific antibody)
first monomer: not shown
second monomer: not shown
light chain: B4 light
As for B7, the “EC50 (read off the curve)” value in [4] is roughly 3 nM.

B8: XENP38936 (bispecific antibody)
heavy: not shown
scFv-Fc: not shown
light: B4 light
notes: also called PSMA x CD28 180 nM
Regarding B8, the “EC50 (read off the curve)” value in [4] was roughly 2 nM. Also, the Kd in assay [5] was 180 nM.

B9: C28PB294.002 PSMA (A10v2) x CD28 (37 nM) (bispecific antibody)
scFv-Fc: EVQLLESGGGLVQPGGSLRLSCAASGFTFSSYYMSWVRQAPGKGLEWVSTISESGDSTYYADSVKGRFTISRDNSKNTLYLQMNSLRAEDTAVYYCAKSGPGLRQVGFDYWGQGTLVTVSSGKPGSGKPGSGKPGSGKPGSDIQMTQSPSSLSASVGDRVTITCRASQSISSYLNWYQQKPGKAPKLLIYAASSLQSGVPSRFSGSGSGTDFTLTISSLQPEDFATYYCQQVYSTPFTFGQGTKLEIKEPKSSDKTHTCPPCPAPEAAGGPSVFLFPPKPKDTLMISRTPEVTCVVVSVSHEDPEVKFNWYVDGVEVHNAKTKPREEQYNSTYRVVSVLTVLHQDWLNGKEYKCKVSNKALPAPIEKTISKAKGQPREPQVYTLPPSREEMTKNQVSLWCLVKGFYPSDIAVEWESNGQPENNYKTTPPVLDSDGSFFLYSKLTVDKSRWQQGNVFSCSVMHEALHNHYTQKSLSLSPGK
heavy: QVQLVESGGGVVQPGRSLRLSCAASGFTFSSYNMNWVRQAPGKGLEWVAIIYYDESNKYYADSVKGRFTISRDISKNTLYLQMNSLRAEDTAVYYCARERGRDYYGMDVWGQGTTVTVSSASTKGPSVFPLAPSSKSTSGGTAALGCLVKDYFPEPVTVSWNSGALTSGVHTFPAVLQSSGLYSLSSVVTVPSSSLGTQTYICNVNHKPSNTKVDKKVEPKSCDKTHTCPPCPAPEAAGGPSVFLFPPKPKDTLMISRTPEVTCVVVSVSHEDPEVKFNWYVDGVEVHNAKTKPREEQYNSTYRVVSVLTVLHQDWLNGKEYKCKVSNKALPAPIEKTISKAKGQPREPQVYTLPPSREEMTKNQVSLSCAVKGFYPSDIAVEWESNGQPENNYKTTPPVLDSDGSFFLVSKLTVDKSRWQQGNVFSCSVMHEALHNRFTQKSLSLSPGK
light: B4 light
With B9, the “EC50 (read off the curve)” value in assay [4] was roughly 3 nM.

B10: XENP39234 PSMA (A10v2) x CD28 (37 nM) (bispecific antibody)
heavy: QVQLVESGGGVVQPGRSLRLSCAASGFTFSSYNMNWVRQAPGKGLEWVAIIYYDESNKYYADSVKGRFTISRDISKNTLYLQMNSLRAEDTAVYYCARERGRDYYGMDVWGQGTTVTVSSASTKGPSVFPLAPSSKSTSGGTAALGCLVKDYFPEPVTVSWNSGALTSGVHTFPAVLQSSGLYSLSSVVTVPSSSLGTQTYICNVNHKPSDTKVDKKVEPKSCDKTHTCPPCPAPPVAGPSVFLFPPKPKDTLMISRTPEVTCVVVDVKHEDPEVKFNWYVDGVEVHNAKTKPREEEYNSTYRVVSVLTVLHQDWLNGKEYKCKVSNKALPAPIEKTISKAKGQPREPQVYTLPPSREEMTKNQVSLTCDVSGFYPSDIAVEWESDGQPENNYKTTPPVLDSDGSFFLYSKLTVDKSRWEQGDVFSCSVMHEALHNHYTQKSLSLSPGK
scFv-Fc: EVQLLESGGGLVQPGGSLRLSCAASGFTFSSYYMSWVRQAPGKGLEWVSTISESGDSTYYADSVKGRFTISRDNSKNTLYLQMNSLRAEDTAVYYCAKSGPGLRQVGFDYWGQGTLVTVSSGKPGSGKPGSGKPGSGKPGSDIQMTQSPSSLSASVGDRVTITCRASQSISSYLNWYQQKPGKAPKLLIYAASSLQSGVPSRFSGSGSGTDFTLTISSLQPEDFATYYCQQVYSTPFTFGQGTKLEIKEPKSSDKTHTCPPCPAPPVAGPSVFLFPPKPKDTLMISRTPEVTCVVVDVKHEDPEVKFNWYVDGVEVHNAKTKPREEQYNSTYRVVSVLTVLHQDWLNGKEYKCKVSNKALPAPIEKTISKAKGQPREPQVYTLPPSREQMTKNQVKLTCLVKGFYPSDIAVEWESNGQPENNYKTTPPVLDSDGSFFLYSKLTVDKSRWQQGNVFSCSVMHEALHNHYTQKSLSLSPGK
light: B4 light
notes: Member of group m19
With B10, the “EC50 (read off the curve)” value in assay [4] is roughly 3 nM.

B11: XENP39231 (bispecific antibody)
heavy: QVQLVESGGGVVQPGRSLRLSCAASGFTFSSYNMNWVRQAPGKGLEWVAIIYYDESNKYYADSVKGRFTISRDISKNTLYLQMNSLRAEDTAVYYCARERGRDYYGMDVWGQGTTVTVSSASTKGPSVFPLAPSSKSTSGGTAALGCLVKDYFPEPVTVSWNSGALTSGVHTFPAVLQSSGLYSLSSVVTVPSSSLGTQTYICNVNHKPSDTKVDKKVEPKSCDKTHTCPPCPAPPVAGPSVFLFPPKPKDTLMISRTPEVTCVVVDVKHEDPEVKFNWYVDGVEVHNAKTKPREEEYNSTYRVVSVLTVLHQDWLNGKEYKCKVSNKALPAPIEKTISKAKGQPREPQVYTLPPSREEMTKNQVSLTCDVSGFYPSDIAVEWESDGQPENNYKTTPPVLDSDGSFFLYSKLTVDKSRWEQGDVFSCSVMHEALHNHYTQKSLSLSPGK
scFv-Fc: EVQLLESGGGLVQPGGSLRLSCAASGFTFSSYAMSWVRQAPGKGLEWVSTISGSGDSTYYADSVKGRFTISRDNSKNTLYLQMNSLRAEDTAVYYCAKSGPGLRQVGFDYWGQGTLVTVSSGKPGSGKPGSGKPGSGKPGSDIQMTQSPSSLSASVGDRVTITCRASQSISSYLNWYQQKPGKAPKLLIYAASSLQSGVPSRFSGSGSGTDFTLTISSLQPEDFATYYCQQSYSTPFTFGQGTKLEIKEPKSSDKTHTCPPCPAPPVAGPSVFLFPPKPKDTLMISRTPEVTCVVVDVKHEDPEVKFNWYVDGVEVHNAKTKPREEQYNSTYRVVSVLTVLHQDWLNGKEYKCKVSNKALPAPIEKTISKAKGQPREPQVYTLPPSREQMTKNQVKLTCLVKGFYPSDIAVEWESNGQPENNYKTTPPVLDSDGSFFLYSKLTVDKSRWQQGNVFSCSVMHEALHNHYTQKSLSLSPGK
light: B4 light
notes: also called PSMA x CD28 1 uM
In [6], B11 registered a Kd of 1000 nM.

B12: XENP40470 (bispecific antibody)
heavy: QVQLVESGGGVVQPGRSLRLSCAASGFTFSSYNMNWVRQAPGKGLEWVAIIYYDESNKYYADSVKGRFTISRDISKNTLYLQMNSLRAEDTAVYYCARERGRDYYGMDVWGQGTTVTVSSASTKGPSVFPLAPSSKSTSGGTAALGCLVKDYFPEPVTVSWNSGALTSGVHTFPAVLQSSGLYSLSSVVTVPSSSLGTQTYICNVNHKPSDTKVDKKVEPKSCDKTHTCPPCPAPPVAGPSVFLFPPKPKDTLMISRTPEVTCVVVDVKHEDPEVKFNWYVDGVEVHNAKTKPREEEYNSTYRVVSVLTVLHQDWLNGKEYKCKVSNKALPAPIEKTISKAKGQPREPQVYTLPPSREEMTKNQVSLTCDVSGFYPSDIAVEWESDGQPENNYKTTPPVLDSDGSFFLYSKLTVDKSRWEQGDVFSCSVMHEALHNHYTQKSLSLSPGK
scFv-Fc: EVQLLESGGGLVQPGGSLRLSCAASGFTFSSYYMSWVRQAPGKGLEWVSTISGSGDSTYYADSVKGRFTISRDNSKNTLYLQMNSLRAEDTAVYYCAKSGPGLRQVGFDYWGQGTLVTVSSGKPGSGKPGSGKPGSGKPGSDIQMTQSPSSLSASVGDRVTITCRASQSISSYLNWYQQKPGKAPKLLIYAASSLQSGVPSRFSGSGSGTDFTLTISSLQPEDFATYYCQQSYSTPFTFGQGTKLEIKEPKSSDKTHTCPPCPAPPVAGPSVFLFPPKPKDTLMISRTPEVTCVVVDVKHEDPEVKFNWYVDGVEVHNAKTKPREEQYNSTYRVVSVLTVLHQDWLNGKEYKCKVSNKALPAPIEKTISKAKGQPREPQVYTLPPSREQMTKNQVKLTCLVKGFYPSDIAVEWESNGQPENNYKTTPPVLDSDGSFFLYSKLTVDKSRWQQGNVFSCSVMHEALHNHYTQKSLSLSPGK
light: B4 light
notes: Assigned to the 600 nM domain by elimination, because XENP39231 is told to be 1000 nM
The molecule B12 gave a Kd in assay [7] of 600 nM.

B13: XENP28428 (antibody, V domains shown)
VH: EVQLLESGGGLVQPGGSLRLSCAASGFTFSSYAMSWVRQAPGKGLEWVSTISGSGDSTYYADSVKGRFTISRDNSKNTLYLQMNSLRAEDTAVYYCAKSGPGLRQVGFDYWGQGTLVTVSS
VL: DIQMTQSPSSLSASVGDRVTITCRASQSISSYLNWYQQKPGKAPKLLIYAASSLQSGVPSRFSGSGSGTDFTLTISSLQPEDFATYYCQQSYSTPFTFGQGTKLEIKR
notes: Bivalent IgG1 mAb with Fc gamma R ablation variants, made in HEK293E; also called anti-CD28 mAb based on clone 1A7; parental anti-CD28 mAb 1A7; copies: 2 + 2
As for B13, the Kd in [8] is 14.5 nM.

B14: XENP38934 PSMA (F02) x CD28 (180nM) (bispecific antibody)
heavy: EVQLLESGPGLVKPSETLSLTCTVSGGSIISYYWSWIRQPAGKGLEWIGRIYSSGSTNYNPSLKSRVTMSVDTSKNQFSLKLSSVTAADTAVYYCAKVGVWPGAFDIWGQGTMVTVSSASTKGPSVFPLAPSSKSTSGGTAALGCLVKDYFPEPVTVSWNSGALTSGVHTFPAVLQSSGLYSLSSVVTVPSSSLGTQTYICNVNHKPSDTKVDKKVEPKSCDKTHTCPPCPAPPVAGPSVFLFPPKPKDTLMISRTPEVTCVVVDVKHEDPEVKFNWYVDGVEVHNAKTKPREEEYNSTYRVVSVLTVLHQDWLNGKEYKCKVSNKALPAPIEKTISKAKGQPREPQVYTLPPSREEMTKNQVSLTCDVSGFYPSDIAVEWESDGQPENNYKTTPPVLDSDGSFFLYSKLTVDKSRWEQGDVFSCSVMHEALHNHYTQKSLSLSPGK
scFv-Fc: not shown
light: not shown
notes: copies: 1 + 1 + 1
Consider B14, for which, in [1], the binding result is given as “binds”.

B15: XENP37902 (bispecific antibody)
heavy: EVQLVQSGAEVKKPGASVKVSCKTSGYTFTEYTIHWVRQAPGQSLEWMGNINPNNGGTTYNQKFQGRVTITVDKSTSTAYMELSSLRSEDTAVYYCAAGWNFDYWGQGTLVTVSSASTKGPSVFPLAPSSKSTSGGTAALGCLVKDYFPEPVTVSWNSGALTSGVHTFPAVLQSSGLYSLSSVVTVPSSSLGTQTYICNVNHKPSDTKVDKKVEPKSCDKTHTCPPCPAPPVAGPSVFLFPPKPKDTLMISRTPEVTCVVVDVKHEDPEVKFNWYVDGVEVHNAKTKPREEEYNSTYRVVSVLTVLHQDWLNGKEYKCKVSNKALPAPIEKTISKAKGQPREPQVYTLPPSREEMTKNQVSLTCDVSGFYPSDIAVEWESDGQPENNYKTTPPVLDSDGSFFLYSKLTVDKSRWEQGDVFSCSVMHEALHNHYTQKSLSLSPGK
scFv-Fc: not shown
light: DIVMTQSPDSLAVSLGERATLSCRASQDVGTAVDWYQQKPDQSPKLLIYWASTRHTGVPDRFTGSGSGTDFTLTISSLQAEDVAVYFCQQYNSYPLTFGAGTKVEIKRTVAAPSVFIFPPSDEQLKSGTASVVCLLNNFYPREAKVQWKVDNALQSGNSQESVTEQDSKDSTYSLSSTLTLSKADYEKHKVYACEVTHQGLSSPVTKSFNRGEC
notes: 1+1 Fab-scFv-Fc format; also called prototype PSMA x CD28 bsAb; 1A7_H1.14_L1
B15: the Kd in [9] came out at 230 nM.

B16: XENP37903 (bispecific antibody)
heavy: B15 heavy
scFv-Fc: not shown
light: B15 light
notes: 1+1 Fab-scFv-Fc format; also called prototype PSMA x CD28 bsAb; 1A7_H1.14_L1.71
On to B16, for which the Kd in assay [9] turned out to be 37 nM.

B17: PSMA x CD28 bsAb with A11 PSMA binding domain and 1A7_H1_L1.71 CD28 binding domain (Platform X) (bispecific antibody)
heavy: QVQLQESGGDVVQPGRSLRLSCAASGFSFSGYGLHWVRQAPGRGLEWVTLISYDGSNKYYADSVKGRFTISRDNSKNTLYLQMNSLRAEDTAVYYCAKTTVSDPYYYGMDVWGQGTTVTVSSASTKGPSVFPLAPSSKSTSGGTAALGCLVKDYFPEPVTVSWNSGALTSGVHTFPAVLQSSGLYSLSSVVTVPSSSLGTQTYICNVNHKPSDTKVDKKVEPKSCDKTHTCPPCPAPPVAGPSVFLFPPKPKDTLMISRTPEVTCVVVDVKHEDPEVKFNWYVDGVEVHNAKTKPREEEYNSTYRVVSVLTVLHQDWLNGKEYKCKVSNKALPAPIEKTISKAKGQPREPQVYTLPPSREEMTKNQVSLTCDVSGFYPSDIAVEWESDGQPENNYKTTPPVLDSDGSFFLYSKLTVDKSRWEQGDVFSCSVMHEALHNHYTQKSLSLSPGK
scFv-Fc: not shown
light: SYELTQPPSVSVAPGQTARITCGGNNIGSKSVHWYQQKPGQAPVLVVYDDSDRPSGIPERFSGTNSGNTATLTISRAEAGDEADYYCQVWDSSSDHVVFGGGTKLTVLGQPKAAPSVTLFPPSSEELQANKATLVCLISDFYPGAVTVAWKADSSPVKAGVETTTPSKQSNNKYAASSYLSLTPEQWKSHRSYSCQVTHEGSTVEKTVAPTECS
For the molecule B17, the binding result in assay [1] is reported as “binds”.

B18: XENP38938 PSMA (F07) x CD28 (180nM) (bispecific antibody)
heavy: not shown
scFv-Fc: not shown
light: B17 light with T64S, A77V, S94T
notes: copies: 1 + 1 + 1
For the molecule B18, the binding result in assay [1] is reported as “binds”.
